Literature values, collected in patent US12377133B2 (Ascendis Pharma Growth Disorders A/S, priority 2019, dated 2025).
Bridges are numbered along the chain shown (N, C = ends). Where no end group is shown, it is not given here.

Details: Lorget et al. 2012

For “BMN111: recombinant CNP-39: 37 C-terminal amino acids of human CNP-53 plus glycine and proline added at the N-terminus (PGQEHPNARKYKGANKKGLSKGCFGLKLDRIGSMSGLGC; disulfide 23-39; chains of the INN, looked up)”, the half-life is listed as 20 min.
